# Laboratory results from the supplement of paper PMC9170038.
# System: MS2 coat protein
# Assay: apparent KD of MS2 coat protein; designed switch direction (-1 OFF switch, 1 ON switch): -1; higher = weaker reporter binding
# Procedure, shortened: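 Designed RNA switches sharing common flanks were transcribed on Illumina chips by stalled E. coli RNA polymerase. They were titrated with SNAP-549-labelled MS2 coat protein, from 0.7 or 1.5 nM doubling to 3 µM, in Tris-HCl pH 7.5 buffer with KCl, MgCl2, BSA, DTT, tRNA and Tween-20. Titrations ran without input, with 200 uM small-molecule ligand, or with an oligonucleotide input. The apparent KD of each design is the median over its clusters, after curve-fitting of normalised cluster fluorescence.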
# [1] = Eterna round: R95, input ligand: FMN 200 uM
# [2] = Eterna round: R95, input ligand: microRNA oligo, concentration not stated
# [3] = Eterna round: R95, input ligand: none
# [4] = input ligand: microRNA oligo, concentration not stated
Sequence,apparent KD of MS2 coat protein [1],apparent KD of MS2 coat protein [2],apparent KD of MS2 coat protein [3],apparent KD of MS2 coat protein (input ligand: FMN 200 uM),apparent KD of MS2 coat protein [4],apparent KD of MS2 coat protein (input ligand: none)
AAAAAACAAGGAUAUACAAAAAAAAAAUGUGUUAAAAAUCCACAUGAGGAUCACCCAUGUAGAAGGUGUAAAAA [JR_Exclusion2_Sub004] (puzzle: Exclusion 2),81 nM,104 nM,172 nM,–,–,–
"AAAAAACAUGAGGAUCACCCAUGUAAGGAUAUGCUGAAAAACACGGAAAAAACGUGCAGCAGAAGGUACAAAAG [Mat - Exclusion 1 - Eli mod - D90] (Eterna round: R96, puzzle: Exclusion 1)",–,–,–,100 nM,55 nM,61.6 nM
AAAAAGGUAGGAUAUACGAAAAAAAAGGGUAGAAAAAAAACACAUGAGGAUCACCCAUGUAGAAGGACCAAAAU [salish99_ex2_r3_044] (puzzle: Exclusion 2),82.8 nM,35.3 nM,36.6 nM,–,–,–
"AAAAAGUUGAGAGGAUAUGGUGCCGAAACGGUGCUAGAAGGCUUUACAAAAAAACAUGAGGAUCACCCAUGUUCAUGUAGAGAA [AK ExNG1-1.1] (Eterna round: R96, puzzle: Exclusion NG 1)",–,–,–,16.3 nM,13.3 nM,15.6 nM
"AAAAAUCGAGGAUAUACAUGAGGAUCACCCAUGUGGGACCAAGAAAACACAAAAGAAAGUAGAAGGCGAUAAAA [Ex 3 May 23] (Eterna round: R96, puzzle: Exclusion 3)",–,–,–,110 nM,25.8 nM,31.7 nM
AAAACGGGAGGAUAUCGUAUCGUACACAUGAGGAUCACCCAUGUCCGGUGCAUCCUCAUCCGAGAAGGCCCAUAAA [Inisrarier] (puzzle: Exclusion 5),25.8 nM,31.4 nM,25.9 nM,–,–,–
"AAAAGAAAAGUAGGAUAUGUGAAAGGAAGUGUAACAGAAGGACUGUGGGUCUUCCGACAUGAGGAUCACCCAUGUAAAAGAAAA [PowerStrip EXNG 1.8] (Eterna round: R96, puzzle: Exclusion NG 1)",–,–,–,114 nM,6.35 nM,53.9 nM
"AAAAGAAAGGGAGGAUAUCUGACGGGAUACCAAAGAGAAGGCCCAGGCACAUGAGGAUCACCCAUGUUCGUGCGCCUACUUAAC [Enveri] (Eterna round: R96, puzzle: Exclusion NG 1)",–,–,–,28.3 nM,9.73 nM,14.4 nM
AAAAGAACAGGAUAUUCGUGAAAUAACAUGAGGAUCACCCAUGUUAACGCGGGUGAGAACGAAGAAGGGUUCUAAA [Ceries] (puzzle: Exclusion 5),121 nM,42.1 nM,61.4 nM,–,–,–
AAAAGAAUAGGAUAUACAUGAGGAUCACCCAUGUGAGGGCACGGCCGGCGCGGGCCCGGUAGAAGGAUUCAAAA [Exc;s3-X] (puzzle: Exclusion 3),23.1 nM,22.5 nM,25.6 nM,–,–,–
AAAAGACAUGAGGAUCACCCAUGUGAGGAUAUUGGAAGAAAGAAAAGAAAGAAAGAAACGAGAAGGCACAAAAG [Exclusion] (puzzle: Exclusion 1),68.2 nM,60.9 nM,51.9 nM,–,–,–
AAAAGCCAAGGAUAUACAUGAGGAUCACCCAUGUAAGAAAUGGGCGCUACCGUUCCGUGUAGAAGGUGGGAAAA [Inuserce] (puzzle: Exclusion 3),–,26 nM,–,–,–,–
AAAAGCCAUGUUAGGAUAUGCAUGGCAGCUGCGAUGCAGAAGGAACAUGAGGAUCACCCAUGUGAACUUAAAUA [Anmaleus] (puzzle: Brourd's mod of Exclusion 4),21.2 nM,16.2 nM,18.3 nM,–,–,–
"AAAAGCUUUUUAAAAAAAAACAUGAGGAUCACCCAUGUUAAAAAAUAUAAGGUGAUAAAAAAUUGUCAAAAAAAAAA [Jieuxbot 008 - Jieux - Sensor v2, turn-off variant] (Eterna round: R96, puzzle: Sensor v2, turn-off variant)",–,–,–,129 nM,148 nM,108 nM
"AAAAGGCAGGGAGGAUAUGCUUACCUGGGUCGUCUUCGAACAUGAGGAUCACCCAUGUAGUCGACGCAGAAGGCCCUCAAAGCC [Mat - Exclusion NG 2 - Mod of JL - D59] (Eterna round: R96, puzzle: Exclusion NG 2)",–,–,–,42.7 nM,25.6 nM,21.7 nM
AAAAGGCUAGGAUAUACCAGUGGGUGUAAGAACUCAAAGUUACAUGAGGAUCACCCAUGUAGAAGGAGUAAAAU [Diriti] (puzzle: Exclusion 2),–,16.2 nM,–,–,–,–
"AAAAGGUAAGGAUAUACAUGCCCAAAACACGUCCUCAGUCCACAUGAGGAUCACCCAUGUAGAAGGUACGAAAA [Ribiesdi] (Eterna round: R97, puzzle: Exclusion 2)",–,–,–,285 nM,–,93.2 nM
"AAAAGUGAAGAGGAUAUCUGCGCCGAACGGUAAAGAGAAGGCUUCACAUGAGGAUCACCCAUGUGGGCCACAGA [EX6 C.5] (Eterna round: R97, puzzle: Exclusion 6)",–,–,–,79.3 nM,–,19.8 nM

Sequence,apparent KD of MS2 coat protein [1],apparent KD of MS2 coat protein [2],apparent KD of MS2 coat protein [3],apparent KD of MS2 coat protein (input ligand: FMN 200 uM),apparent KD of MS2 coat protein [4],apparent KD of MS2 coat protein (input ligand: none)
AAAAGUUAAGGAUAUACAGGGAGCCGCGGCGACUCGCCGCAACAUGAGGAUCACCCAUGUAGAAGGUAGCCAAA [Enbibi] (puzzle: Exclusion 2),–,23.7 nM,–,–,–,–
"AAAAGUUAAGGAUAUACUUGAGGAUCACCCAAGUAGGUGGCUUCAGCCGGAAACCGGCGUAGAAGGUAGCAGAA [Laentezabe] (Eterna round: R97, puzzle: Exclusion 3)",–,–,–,54.9 nM,–,56.3 nM
"AAAAUAAAAAUAAACAAGCACAUGAGGAUCACCCAUGUUCGUCUUAUAAAAAUAAAAAUAAAAAACAAAAAAUAAAA [Sensor V2: 48] (Eterna round: R96, puzzle: Sensor v2, turn-off variant)",–,–,–,19 nM,29.6 nM,20.6 nM
"AAAAUAACAUGAGGAUCACCCAUGUAAUUGGGUAGUCCGAGCGAGGAUAUCCUCGCCGGAAAAGAGGAGAAGGCGCAAUGAAAG [Usxeeran] (Eterna round: R96, puzzle: Exclusion NG 3)",–,–,–,882 nM,424 nM,509 nM
"AAAAUACAUGAGGAUCACCCAUGUGAGGAUAUGAGCGUCAUUUAUAUAUAUUAGACGCUCAGAAGGCACAUAAA [JR_Ex1_Sub069] (Eterna round: R97, puzzle: Exclusion 1)",–,–,–,214 nM,–,44.3 nM
"AAAAUGUGAGGAUAUCACGGAGCCUCGCAUGACGAGACUCCUGAGAAGGCACAUGAGGAUCACCCAUGUCCUGU [EX4 A.10] (Eterna round: R97, puzzle: Exclusion 4)",–,–,–,382 nM,–,57 nM
AAAAUGUGAGGAUAUCAGGUGUGCUAGAGAACUGGUACAUCUGAGAAGGCACAUGAGGAUCACCCAUGUUCUUC [Mat - Exclusion 4 - Mod of JL - D57] (puzzle: Exclusion 4),–,30.9 nM,–,–,–,–
AAAAUGUGAGGAUAUCAGGUGUGCUAGCGUACUGGUACAUCUGAGAAGGCACAUGAGGAUCACCCAUGUUUCUU [Mat - Exclusion 4 - Mod of JL - D44] (puzzle: Exclusion 4),–,22.5 nM,–,–,–,–
"AAACAGGAUGUAAGGAUAUCCAAGUGCUAAGCACGGGAGAAGGUACAUGAGGAUCACCCAUGUGGUCUUCCAAU [Quesardi] (Eterna round: R97, puzzle: Brourd's mod of Exclusion 4)",–,–,–,253 nM,–,120 nM
AAACCUAUAGGAUAUACAUGAGGAUCACCCAUGUUGCGAUUUUUUAGGUAACAGAUCCGUAGAAGGGUAGGUCA [Reinesce] (puzzle: Exclusion 3),–,38.1 nM,–,–,–,–
AAACCUAUAGGAUAUACAUGAGGAUCACCCAUGUUGCGAUUUUUUAGGUAACAGAUCCGUAGAAGGGUAGGUUA [Anzaoror] (puzzle: Exclusion 3),–,24.4 nM,–,–,–,–
"AAACCUCGUGUAAGGAUAUCAAGGCUUAGCGGGUGUGAGAAGGUACAUGAGGAUCACCCAUGUCAUGAUUUACG [mod2 score 1 eternabot] (Eterna round: R97, puzzle: Brourd's mod of Exclusion 4)",–,–,–,798 nM,–,252 nM
"AAACCUGCCCAUGACCGCAAGCUUUUUACUUGUCUUACCACAUGAGGAUCACCCAUGUGACAUGGGCUCCUUAUAAA [Ceedbe] (puzzle: Sensor v3, turn-off variant 2)",12.8 nM,4.81 nM,11.2 nM,–,–,–
"AAACGACAUGAGGAUCACCCAUGUGGCCCUUAGACUCGUAUCGAGGAUAUCCAGGGCCGGGCCGUGGAGAAGGCGAAUUAAAAU [Cetele] (Eterna round: R96, puzzle: Exclusion NG 3)",–,–,–,63.8 nM,28.8 nM,43.6 nM
AAACGCUGAGGAUAUGCGCCGAGGCACAUGAGGAUCACCCAUGUGACCUCACUGCCUUGAGCAGAAGGCAGAAAAU [Vezaatinxe] (puzzle: Exclusion 5),137 nM,56.4 nM,53 nM,–,–,–
"AAACGGCAAUAAGGAUAUGCUUACCUGGGUCGUCUUCAAACAUGAGGAUCACCCAUGUAGUCGACGCAGAAGGUAUUCAAAGCC [ExNG2 first] (Eterna round: R96, puzzle: Exclusion NG 2)",–,–,–,13.5 nM,10.4 nM,12.8 nM
"AAACGGCGGAUCGUGGCUUUUUGCUCGUCUUGUGCUACAACAUGAGGAUCACCCAUGUAGAGGUGAUCCGUUGUAAA [Grok-var2-18 mod JAL] (puzzle: Sensor v3, turn-off variant 2)",28 nM,17.1 nM,38.3 nM,–,–,–
